Experimental findings from patent US9822336B2, “Blastoid, cell line based artificial blastocyst” (Universiteit Maastricht, priority 2013, dated 2017) are described below.

For experiment [1], the system named is Cdx2 expression in trophoblast stem cells of ES-TS aggregates. Briefly: Cdx2 expression by CDX2 immunostaining. It counts as cell-based, mouse. The settings on record: CDX2 immunostaining (FIG. 4g). As to the method: • Double layer formation: the formation of an (at least) double layered cell aggregate with an external layer of TS cells and an inner layer of ES cells is evaluated using transgenic cell lines. Specifically, ES cells were transfected with Histone 2B and a Red Fluorescent Protein under the control of a cytomegalovirus promoter and clonally derived. The H2B-RFP ES cells are thus constitutively expressing a red fluorescence within their nucleus which allows for their tracking. • TS cells were derived from a mouse constitutively expressing Green Fluorescent Protein (GFP) under the control of a cytomegalovirus promoter in all cells. The GFP TS cells are thus expressing a green fluorescence in their cytoplasma which allows for their tracking. • The formation of a double-layered aggregate is thus assessed by observing a green outer layer of cells and a red inner layer of cells. The efficiency of engulfment is determined as the percentage of green-colored projection area (representing the TS cell layer) that overlaps with an artificial 3-pixel-wide ring drawn around the red-colored projection area (representing the inner aggregate of ES cells) after 24 hours of culturing the ES-TS cell clusters. […] The formation of a cavity is preferably assessed using the cross-sectional section of a cellular aggregate stained with a nuclear-specific dye (for example DAPI). […]

The subject of experiment [2] is ES-TS cell clusters. The experiment can be described thus: Cavitation of ES-TS cell clusters (yield of cavitated blastoids). Type of experiment: cell-based, mouse. The settings on record: FIG. 4h; CHIR99021 at 3 uM. Here is the method:
FIG. 4c: […], The yield of cavitated blastoids is described by the percentage of ES-TS cell clusters that were cavitated after 96 hours of culture, thus forming an artificial blastocyst or blastoid. […]
The efficiency of blastoid formation is measured as the percentage of cavitated structures with (1) an external cellular layer expressing the transcription factors CDX2, Eomes and GATA3 and (2) an internal cellular aggregate expressing the transcription factors Oct4 and Sox2 and at least partly Nanog.
The formation of a cavity is assessed by the formation of a volume within the aggregate that is not occupied by cellular nucleus. The formation of a cavity is preferably assessed using the cross-sectional section of a cellular aggregate stained with a nuclear-specific dye (for example DAPI).
• Double layer formation: the formation of an (at least) double layered cell aggregate with an external layer of TS cells and an inner layer of ES cells is evaluated using transgenic cell lines. […] The H2B-RFP ES cells are thus constitutively expressing a red fluorescence within their nucleus which allows for their tracking. • TS cells were derived from a mouse constitutively expressing Green Fluorescent Protein (GFP) under the control of a cytomegalovirus promoter in all cells. […]

B1: HB-EGF: a protein and a growth factor known in the art to activate the MAPK signalling pathway (protein, UniProt Q99075 63-148, looked up)
Heparin-binding EGF-like …: DLQEADLDLLRVTLSSKPQALATPNKEEHGKRKKKGKGLGKKRDPCLRKYKDFCIHGECKYVKELRAPSCICHPGYHGERCHGLSL
modifications: Heparin-binding EGF-like growth factor
Turning to B1, the Cdx2 expression entry in experiment [1] was “positively correlates with an increase of Cdx2 expression”.

B2: Wnt3a: Wnt ligand (protein, UniProt P56704 19-352, looked up)
Protein Wnt-3a: SYPIWWSLAVGPQYSSLGSQPILCASIPGLVPKQLRFCRNYVEIMPSVAEGIKIGIQECQHQFRGRRWNCTTVHDSLAIFGPVLDKATRESAFVHAIASAGVAFAVTRSCAEGTAAICGCSSRHQGSPGKGWKWGGCSEDIEFGGMVSREFADARENRPDARSAMNRHNNEAGRQAIASHMHLKCKCHGLSGSCEVKTCWWSQPDFRAIGDFLKDKYDSASEMVVEKHRESRGWVETLRPRYTYFKVPTERDLVYYEASPNFCEPNPETGSFGTRDRTCNVSSHGIDGCDLLCCGRGHNARAERRREKCRCVFHWCCYVSCQECTRVYDVHTCK
For the molecule B2, the “yield of cavitated blastoids / cavitation” value in experiment [2] is reported as “increases the yield of cavitated blastoids”.
